In paper doi:10.1101/2025.08.18.670068 (2025) one finds Kd data, which are given here for one molecule.

What all share (assay): SPR
Experiment [1] deals with soluble CCR8 analogue BM1.
The target of experiment [2] is soluble CCR8 analogue BM5.
In experiment [3] the target is soluble CCR8 analogue BM3.
Experiment [4] deals with soluble CCR8 analogue BM7.
For experiment [5], the target named is soluble CCR8 analogue BM6.

B1: mAb1 in full length human IgG1 format (antibody, V domains shown)
VH: QSVEESGGRLVTPGTPLTLTCTVSGFSLSNYAMIWVRQAPGEGLEWVGTISLGGYTYYANWAKGRFTISKTSTTVDLKISSPTTEDTATYFCARARWSTDSAIYTYAFDPWGPGTLVTVSS
VL: AYDMTQTPASVEVAVGGTVTIKCQASQSISSYLSWYQQKPGQRPELLIYKASTLASGVSSRFKGSGSGTQFTLTISDLEAADAATYYCQQGYTSSNIDNIFGGGTEVVVK
Consider B1, for which the equilibrium dissociation constant (Kd) (commonly the constant that tells how readily two partners part at equilibrium) in experiment [1] worked out at 267 nM; in experiment [2] it was 629 nM; in experiment [3], 154 nM; in experiment [4] it was 252 nM; in experiment [5], 552 nM.
